Results on 20 molecules are retold here after patent publication US20260176319A1 (KALLYOPE, published 2026).

The assay concerns the target human GRP receptor (human, UniProt P30550 1-384). The assay can be described thus: cell-based or functional assay.

Starred links: 1 amine or outer side, 2 acyl side, 3 side chain; linkers in the order of their positions; H or OH if unused. Non-standard residues stand in square brackets, D forms with d. *: point of attachment. Trp(7-Me) = Cc1cccc2c(C[C@H](N)C(=O)O)c[nH]c12; C20 diacid = O=C(O)CCCCCCCCCCCCCCCCCCC(=O)*; d(γGlu) = O=C(O)[C@@H](CCC(=O)[*:2])N[*:1]; γGlu = O=C(O)[C@H](CCC(=O)[*:2])N[*:1]; Palmitoyl = CCCCCCCCCCCCCCCC(=O)*; 2CE‑PEG‑TMEA = not defined here; 3Pal = N[C@@H](Cc1cccnc1)C(=O)O; 5CTMPA = not defined here; Nle = CCCC[C@H](N)C(=O)O; Dap = NC[C@H](N)C(=O)O; AEEA = NCCOCCOCC(=O)O; βAla = NCCC(=O)O; Sar = CNCC(=O)O

human GRP receptor, sequence (P30550 whole entry): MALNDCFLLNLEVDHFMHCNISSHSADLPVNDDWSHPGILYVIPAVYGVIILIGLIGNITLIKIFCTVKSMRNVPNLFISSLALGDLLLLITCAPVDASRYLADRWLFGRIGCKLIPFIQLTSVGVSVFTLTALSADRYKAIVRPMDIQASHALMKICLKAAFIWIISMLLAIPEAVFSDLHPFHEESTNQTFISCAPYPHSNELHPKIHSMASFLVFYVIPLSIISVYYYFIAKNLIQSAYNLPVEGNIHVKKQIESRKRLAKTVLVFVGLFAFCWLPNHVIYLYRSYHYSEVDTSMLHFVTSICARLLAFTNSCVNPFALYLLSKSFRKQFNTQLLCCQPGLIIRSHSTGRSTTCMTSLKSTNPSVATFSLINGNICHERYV

B1: Peptide 251 (peptide)
peptide: {C20 diacid}-[γGlu][γGlu][AEEA][AEEA]GQHWAV[βAla]HL[Nle]-NH2
SMILES: CCCC[C@H](NC(=O)[C@H](CC(C)C)NC(=O)[C@H](Cc1c[nH]cn1)NC(=O)CCNC(=O)[C@@H](NC(=O)[C@H](C)NC(=O)[C@H](Cc1c[nH]c2ccccc12)NC(=O)[C@H](Cc1c[nH]cn1)NC(=O)[C@H](CCC(N)=O)NC(=O)CNC(=O)COCCOCCNC(=O)COCCOCCNC(=O)CC[C@H](NC(=O)CC[C@H](NC(=O)CCCCCCCCCCCCCCCCCCC(=O)O)C(=O)O)C(=O)O)C(C)C)C(N)=O
Regarding B1, the “hIP1 GRPR EC50” value was 4.4 nM.

B2: Peptide 248 (peptide)
peptide: {C20 diacid}-[γGlu][γGlu][AEEA][AEEA]E[dS]EH[Trp(7-Me)]AV[βAla]HL[Nle]-NH2
SMILES: CCCC[C@H](NC(=O)[C@H](CC(C)C)NC(=O)[C@H](Cc1c[nH]cn1)NC(=O)CCNC(=O)[C@@H](NC(=O)[C@H](C)NC(=O)[C@H](Cc1c[nH]c2c(C)cccc12)NC(=O)[C@H](Cc1c[nH]cn1)NC(=O)[C@H](CCC(=O)O)NC(=O)[C@@H](CO)NC(=O)[C@H](CCC(=O)O)NC(=O)COCCOCCNC(=O)COCCOCCNC(=O)CC[C@H](NC(=O)CC[C@H](NC(=O)CCCCCCCCCCCCCCCCCCC(=O)O)C(=O)O)C(=O)O)C(C)C)C(N)=O
In the case of B2, the “hIP1 GRPR EC50” value turned out to be 10.5 nM.

For {C20 diacid}-[γGlu][AEEA][AEEA]G[Dap](5CTMPA)HWAV[βAla]HL[Nle]-NH2 (reading uncertain) [Peptide 261], the “hIP1 GRPR EC50” value amounted to 4 nM.

As to {C20 diacid}-[γGlu][γGlu][AEEA][AEEA]GQH[Trp(7-Me)]AV[BABA]HL[Nle]-NH2 [Peptide 259], the “hIP1 GRPR EC50” value was 8.2 nM.

B3: Peptide 245 (peptide)
peptide: {C20 diacid}-[γGlu][γGlu][AEEA][AEEA][dF]N[3Pal]WAV[βAla]HL[Nle]-NH2
SMILES: CCCC[C@H](NC(=O)[C@H](CC(C)C)NC(=O)[C@H](Cc1c[nH]cn1)NC(=O)CCNC(=O)[C@@H](NC(=O)[C@H](C)NC(=O)[C@H](Cc1c[nH]c2ccccc12)NC(=O)[C@H](Cc1cccnc1)NC(=O)[C@H](CC(N)=O)NC(=O)[C@@H](Cc1ccccc1)NC(=O)COCCOCCNC(=O)COCCOCCNC(=O)CC[C@H](NC(=O)CC[C@H](NC(=O)CCCCCCCCCCCCCCCCCCC(=O)O)C(=O)O)C(=O)O)C(C)C)C(N)=O
Regarding B3, the “hIP1 GRPR EC50” value came out at 11.9 nM.

{C20 diacid}-[γGlu][AEEA][AEEA]GNH[Trp(7-Me)]AV[3A3MBA]HL[Nle]-NH2 [Peptide 264]: the “hIP1 GRPR EC50” value was 8.6 nM.

Regarding {C20 diacid}-[γGlu][AEEA][AEEA]GQH[Trp(7-Me)]AV[BAIBA]HL[Nle]-NH2 [Peptide 263], the “hIP1 GRPR EC50” value was determined as 2.7 nM.

B4: Peptide 252 (peptide)
peptide: {C20 diacid}-[γGlu][γGlu][AEEA][AEEA]EGRH[Trp(7-Me)]AV[βAla]HL[Nle]-NH2
SMILES: CCCC[C@H](NC(=O)[C@H](CC(C)C)NC(=O)[C@H](Cc1c[nH]cn1)NC(=O)CCNC(=O)[C@@H](NC(=O)[C@H](C)NC(=O)[C@H](Cc1c[nH]c2c(C)cccc12)NC(=O)[C@H](Cc1c[nH]cn1)NC(=O)[C@H](CCCNC(=N)N)NC(=O)CNC(=O)[C@H](CCC(=O)O)NC(=O)COCCOCCNC(=O)COCCOCCNC(=O)CC[C@H](NC(=O)CC[C@H](NC(=O)CCCCCCCCCCCCCCCCCCC(=O)O)C(=O)O)C(=O)O)C(C)C)C(N)=O
Consider B4, for which the “hIP1 GRPR EC50” value came to 7.5 nM.

B5: Peptide 15 (peptide)
peptide: Palmitoyl-[d(γGlu)][AEEA][AEEA]GNHWAV[dA]HL[Nle][Sar]-NH2
SMILES: CCCCCCCCCCCCCCCC(=O)N[C@H](CCC(=O)NCCOCCOCC(=O)NCCOCCOCC(=O)NCC(=O)N[C@@H](CC(N)=O)C(=O)N[C@@H](Cc1c[nH]cn1)C(=O)N[C@@H](Cc1c[nH]c2ccccc12)C(=O)N[C@@H](C)C(=O)N[C@H](C(=O)N[C@H](C)C(=O)N[C@@H](Cc1c[nH]cn1)C(=O)N[C@@H](CC(C)C)C(=O)N[C@@H](CCCC)C(=O)N(C)CC(N)=O)C(C)C)C(=O)O
As to B5, the “hIP1 GRPR EC50” value came out at 1.4 nM.

Turning to {C20 diacid}-[γGlu][γGlu][AEEA][AEEA]GEH[Trp(7-Me)]AV[BABA]HL[Nle]-NH2 [Peptide 247], the “hIP1 GRPR EC50” value was 1.8 nM.

B6: Peptide 253 (peptide)
peptide: {C20 diacid}-[γGlu][γGlu][AEEA][AEEA]RRH[Trp(7-Me)]AV[βAla]HL[Nle]-NH2
SMILES: CCCC[C@H](NC(=O)[C@H](CC(C)C)NC(=O)[C@H](Cc1c[nH]cn1)NC(=O)CCNC(=O)[C@@H](NC(=O)[C@H](C)NC(=O)[C@H](Cc1c[nH]c2c(C)cccc12)NC(=O)[C@H](Cc1c[nH]cn1)NC(=O)[C@H](CCCNC(=N)N)NC(=O)[C@H](CCCNC(=N)N)NC(=O)COCCOCCNC(=O)COCCOCCNC(=O)CC[C@H](NC(=O)CC[C@H](NC(=O)CCCCCCCCCCCCCCCCCCC(=O)O)C(=O)O)C(=O)O)C(C)C)C(N)=O
With B6, the “hIP1 GRPR EC50” value was 3.7 nM.

Turning to {C20 diacid}-[γGlu][γGlu][AEEA][AEEA]GNH[Trp(7-Me)]AV[BABA]HL[Nle]-NH2 [Peptide 258], the “hIP1 GRPR EC50” value is 6 nM.

B7: Peptide 257 (peptide)
peptide: {C20 diacid}-[γGlu][γGlu][AEEA][AEEA]ESQH[Trp(7-Me)]AV[βAla]HL[Nle]-NH2
SMILES: CCCC[C@H](NC(=O)[C@H](CC(C)C)NC(=O)[C@H](Cc1c[nH]cn1)NC(=O)CCNC(=O)[C@@H](NC(=O)[C@H](C)NC(=O)[C@H](Cc1c[nH]c2c(C)cccc12)NC(=O)[C@H](Cc1c[nH]cn1)NC(=O)[C@H](CCC(N)=O)NC(=O)[C@H](CO)NC(=O)[C@H](CCC(=O)O)NC(=O)COCCOCCNC(=O)COCCOCCNC(=O)CC[C@H](NC(=O)CC[C@H](NC(=O)CCCCCCCCCCCCCCCCCCC(=O)O)C(=O)O)C(=O)O)C(C)C)C(N)=O
In the case of B7, the “hIP1 GRPR EC50” value was 12.5 nM.

B8: Peptide 256 (peptide)
peptide: {C20 diacid}-[γGlu]E[AEEA][AEEA]SGRH[Trp(7-Me)]AV[βAla]HL[Nle]-NH2
SMILES: CCCC[C@H](NC(=O)[C@H](CC(C)C)NC(=O)[C@H](Cc1c[nH]cn1)NC(=O)CCNC(=O)[C@@H](NC(=O)[C@H](C)NC(=O)[C@H](Cc1c[nH]c2c(C)cccc12)NC(=O)[C@H](Cc1c[nH]cn1)NC(=O)[C@H](CCCNC(=N)N)NC(=O)CNC(=O)[C@H](CO)NC(=O)COCCOCCNC(=O)COCCOCCNC(=O)[C@H](CCC(=O)O)NC(=O)CC[C@H](NC(=O)CCCCCCCCCCCCCCCCCCC(=O)O)C(=O)O)C(C)C)C(N)=O
Take B8: the “hIP1 GRPR EC50” value was 3.7 nM.

B9: Peptide 255 (peptide)
peptide: {C20 diacid}-[γGlu]E[AEEA][AEEA]SGEH[Trp(7-Me)]AV[βAla]HL[Nle]-NH2
SMILES: CCCC[C@H](NC(=O)[C@H](CC(C)C)NC(=O)[C@H](Cc1c[nH]cn1)NC(=O)CCNC(=O)[C@@H](NC(=O)[C@H](C)NC(=O)[C@H](Cc1c[nH]c2c(C)cccc12)NC(=O)[C@H](Cc1c[nH]cn1)NC(=O)[C@H](CCC(=O)O)NC(=O)CNC(=O)[C@H](CO)NC(=O)COCCOCCNC(=O)COCCOCCNC(=O)[C@H](CCC(=O)O)NC(=O)CC[C@H](NC(=O)CCCCCCCCCCCCCCCCCCC(=O)O)C(=O)O)C(C)C)C(N)=O
With B9, the “hIP1 GRPR EC50” value came to 6.9 nM.

B10: Peptide 244 (peptide)
peptide: {C20 diacid}-[γGlu][γGlu][AEEA][AEEA]GRHWAV[dA]HL[Nle]-NH2
SMILES: CCCC[C@H](NC(=O)[C@H](CC(C)C)NC(=O)[C@H](Cc1c[nH]cn1)NC(=O)[C@@H](C)NC(=O)[C@@H](NC(=O)[C@H](C)NC(=O)[C@H](Cc1c[nH]c2ccccc12)NC(=O)[C@H](Cc1c[nH]cn1)NC(=O)[C@H](CCCNC(=N)N)NC(=O)CNC(=O)COCCOCCNC(=O)COCCOCCNC(=O)CC[C@H](NC(=O)CC[C@H](NC(=O)CCCCCCCCCCCCCCCCCCC(=O)O)C(=O)O)C(=O)O)C(C)C)C(N)=O
With B10, the “hIP1 GRPR EC50” value was found to be 2.8 nM.

B11: Peptide 16 (peptide)
peptide: Palmitoyl-[d(γGlu)][AEEA][AEEA]GEHWAV[dA]HL[Nle]-NH2
SMILES: CCCCCCCCCCCCCCCC(=O)N[C@H](CCC(=O)NCCOCCOCC(=O)NCCOCCOCC(=O)NCC(=O)N[C@@H](CCC(=O)O)C(=O)N[C@@H](Cc1c[nH]cn1)C(=O)N[C@@H](Cc1c[nH]c2ccccc12)C(=O)N[C@@H](C)C(=O)N[C@H](C(=O)N[C@H](C)C(=O)N[C@@H](Cc1c[nH]cn1)C(=O)N[C@@H](CC(C)C)C(=O)N[C@@H](CCCC)C(N)=O)C(C)C)C(=O)O
For B11, the “hIP1 GRPR EC50” value was 5.8 nM.

For {C20 diacid}-[γGlu][AEEA][AEEA]GQHWAV[βAla]HL[Hse(Me)]-NH2 [Peptide 265], the “hIP1 GRPR EC50” value came to 7.7 nM.

On to {C20 diacid}-[γGlu][AEEA][AEEA]G[Dap](2CE‑PEG‑TMEA)HWAV[βAla]HL[Nle]-NH2 (reading uncertain) [Peptide 262], for which the “hIP1 GRPR EC50” value was determined as 4 nM.

B12: Peptide 254 (peptide)
peptide: {C20 diacid}-[γGlu][γGlu][AEEA][AEEA]RGRH[Trp(7-Me)]AV[βAla]HL[Nle]-NH2
SMILES: CCCC[C@H](NC(=O)[C@H](CC(C)C)NC(=O)[C@H](Cc1c[nH]cn1)NC(=O)CCNC(=O)[C@@H](NC(=O)[C@H](C)NC(=O)[C@H](Cc1c[nH]c2c(C)cccc12)NC(=O)[C@H](Cc1c[nH]cn1)NC(=O)[C@H](CCCNC(=N)N)NC(=O)CNC(=O)[C@H](CCCNC(=N)N)NC(=O)COCCOCCNC(=O)COCCOCCNC(=O)CC[C@H](NC(=O)CC[C@H](NC(=O)CCCCCCCCCCCCCCCCCCC(=O)O)C(=O)O)C(=O)O)C(C)C)C(N)=O
Take B12: the “hIP1 GRPR EC50” value was found to be 3.7 nM.
